Common to all, as to assay: cell-based or functional assay
Assay [1] concerns the target HIV-1 93RW029 envelope glycoprotein (Env) (HIV-1).
For assay [2], the target named is HIV-1 MGRM-C-009 Env (HIV-1).
The target of assay [3] is HIV-1 MGRM-A-014 envelope glycoprotein (Env) (HIV-1).
Assay [4] concerns the target HIV-1 Env of isolate MGRM-G-016 (clade G pseudovirus) (HIV-1).
In assay [5] the target is HIV-1 Env of isolate 92UG005 (clade D) (HIV-1).
Assay [6] has as its target HIV-1 Env of pseudovirus TRJ0.58 (Acute), clade B (HIV-1).
Assay [7] concerns the target HIV-1 Env of isolate MGRM-D-018 (clade D) (HIV-1).
Assay [8] concerns the target HIV-1 MGRM-C-014 Env (HIV-1).
In assay [9] the target is HIV-1 Env of isolate MGRM-D-004 (clade D) (HIV-1).
Assay [10] has as its target HIV-1 JRCSF envelope glycoprotein (Env) on pseudovirus (HIV-1).
In assay [11] the target is HIV-1 MGRM-C-013 Env (HIV-1).
Assay [12] has as its target HIV-1 Env of pseudovirus 6535.3 (Acute), clade B (HIV-1).
Assay [13] concerns the target HIV-1 Env of isolate MGRM-D-024 (clade D) (HIV-1).
For assay [14], the target named is HIV-1 94UG103 envelope glycoprotein (Env) (HIV-1).
For assay [15], the target named is HIV-1 Env of isolate MGRM-D-021 (clade D) (HIV-1).
Assay [16] has as its target HIV-1 Env of isolate MGRM-D-012 (clade D) (HIV-1).
The target of assay [17] is HIV-1 MGRM-F1-010 Env (pseudovirus) (HIV-1).
The target in assay [18] is HIV-1 MGRM-F1-014 Env (pseudovirus) (HIV-1).

A value given as a limit tells only on which side of the number the result lay.

This note sets out measurements from patent publication US20200024330A1.

Chain of 1443_C16 (PG16) (TCN-116) (antibody) (VH): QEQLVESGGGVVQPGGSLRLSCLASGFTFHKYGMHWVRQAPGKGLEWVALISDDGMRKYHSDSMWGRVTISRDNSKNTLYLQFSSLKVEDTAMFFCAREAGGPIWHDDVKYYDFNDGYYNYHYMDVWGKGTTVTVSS
Chain of 1443_C16 (PG16) (TCN-116) (antibody) (VL): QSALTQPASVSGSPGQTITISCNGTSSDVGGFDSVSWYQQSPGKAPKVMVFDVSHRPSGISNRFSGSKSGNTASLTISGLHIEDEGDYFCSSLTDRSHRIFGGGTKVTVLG

For orientation: IC50 means the concentration needed to halve the response being measured. A lower IC50 goes with greater potency in that assay. As to 1443_C16 (PG16) (TCN-116) (antibody), the IC50 (µg/ml), pseudovirus neutralization in assay [1] was 3.83 µg/mL; in [3], 20.3 µg/mL; in assay [4], 11.3 µg/mL; in assay [5], greater than 50 µg/mL; in assay [6], 1.16 µg/mL; in assay [7], 0.004 µg/mL. Further, the IC50 (µg/ml), pseudovirus neutralization in [9] is 0.01 µg/mL; in assay [12] it was 36.9 µg/mL; in assay [13] it was 0.02 µg/mL; in assay [14], 0.04 µg/mL; in [15], greater than 50 µg/mL; in assay [16] it was 0.35 µg/mL. The IC50 (µg/ml), pseudovirus neutralization in [17] and in assay [18] was 0.01 µg/mL in each case. The IC50 in assay [2], in assay [8] and in [11] was greater than 50 µg/mL throughout. In addition, the IC90 (pseudovirus neutralization) in assay [10] amounted to 0.013 µg/mL.

b12 (antibody): the IC50 (µg/ml), pseudovirus neutralization in [1] was greater than 50 µg/mL; in assay [3] it was greater than 50 µg/mL; in [4], greater than 50 µg/mL; in [5], greater than 50 µg/mL; in assay [6], greater than 50 µg/mL; in [7], 1.39 µg/mL. Besides, the IC50 (µg/ml), pseudovirus neutralization in assay [9] is greater than 50 µg/mL; in assay [12], 1.93 µg/mL; in assay [13], 5.92 µg/mL; in assay [14], 6.92 µg/mL; in assay [15] it was 5.23 µg/mL; in [16] it was 0.13 µg/mL. The IC50 (µg/ml), pseudovirus neutralization in assay [17] and in assay [18] was greater than 50 µg/mL each time. The IC50 in assay [2], in [8] and in [11] was greater than 50 µg/mL in each case. The same substance displayed an IC90 (pseudovirus neutralization) in [10] of 1.17 µg/mL.
